Patent publication US20240010735A1 (EISAI R AND D MANAGEMENT, published 2024)

Experiments:
Test in all cases: ELISA: SEAP-His proteins (1 nM) captured on anti-6-His antibody, antibody A 10 µg/mL with human IgG 100 µg/mL, HRP anti-mouse IgG, OD450 as % of human EphA4-SEAP-His
[1] = molecular target: T1, human EphB4 extracellular region-SEAP-His protein (human, UniProt P54760 16-539)
T1 construct: extracellular domain; also called Eph receptor extracellular region-SEAP-His protein; not shown: secretory alkaline phosphatase (SEAP); histidine tag
T1 sequence (looked up): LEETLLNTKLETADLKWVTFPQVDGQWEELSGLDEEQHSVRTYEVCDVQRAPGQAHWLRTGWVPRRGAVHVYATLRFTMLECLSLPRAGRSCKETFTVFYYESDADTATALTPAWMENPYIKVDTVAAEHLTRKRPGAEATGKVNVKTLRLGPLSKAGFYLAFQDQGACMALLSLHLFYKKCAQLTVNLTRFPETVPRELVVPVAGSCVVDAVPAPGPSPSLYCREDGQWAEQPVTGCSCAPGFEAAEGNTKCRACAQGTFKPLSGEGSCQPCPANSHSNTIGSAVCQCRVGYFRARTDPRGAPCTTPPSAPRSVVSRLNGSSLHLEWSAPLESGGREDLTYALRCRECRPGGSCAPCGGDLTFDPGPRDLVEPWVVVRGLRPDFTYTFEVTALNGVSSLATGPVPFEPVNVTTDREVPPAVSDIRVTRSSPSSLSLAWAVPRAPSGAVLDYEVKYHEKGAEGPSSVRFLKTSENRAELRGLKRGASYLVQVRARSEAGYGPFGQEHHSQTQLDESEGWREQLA
Experimental: (§1) Rabbit anti-6-His antibodies (Bethel Laboratories) were coated onto the wells of a 96-well plate (Nunc). After incubating at 4° C. overnight, the wells were blocked at room temperature for 1 hour by 1% Block Ace (DS Pharma Biomedical). After washing 3 times with 0.05% Tween 20/PBS (Thermo […]), each Eph receptor of human extracellular region-SEAP-His protein (final concentration 1 nM) was seeded into each well, and incubated at room temperature for 1 hour. After washing 3 times, human IgG solution (100 μg/mL, Mitsubishi Pharma Corporation) and antibody A (10 μg/mL) were supplemented to the wells, and incubated at room temperature for 1 hour. Horseradish peroxidase-labeled donkey anti-mouse IgG antibody (Jackson ImmunoResearch Laboratories) was added, and incubated at room, temperature for 1 hour. After washing 3 times, TMBZ (3,3′,5,5′-tetramethylbenzidine, Sigma) solution was added to the wells, and upon confirmation of modest coloring, an equal amount of quenching solution (1 N H₂SO₄, Wako Pure Chemicals) was added to the wells, and absorbance at 450 nm was read by a microplate reader (PerkinElmer).

[2] = molecular target: T2, human EphB2 extracellular region-SEAP-His protein (human, UniProt P29323 19-543)
T2 construct: extracellular domain; also called Eph receptor extracellular region-SEAP-His protein; not shown: secretory alkaline phosphatase (SEAP); histidine tag
T2 sequence (looked up): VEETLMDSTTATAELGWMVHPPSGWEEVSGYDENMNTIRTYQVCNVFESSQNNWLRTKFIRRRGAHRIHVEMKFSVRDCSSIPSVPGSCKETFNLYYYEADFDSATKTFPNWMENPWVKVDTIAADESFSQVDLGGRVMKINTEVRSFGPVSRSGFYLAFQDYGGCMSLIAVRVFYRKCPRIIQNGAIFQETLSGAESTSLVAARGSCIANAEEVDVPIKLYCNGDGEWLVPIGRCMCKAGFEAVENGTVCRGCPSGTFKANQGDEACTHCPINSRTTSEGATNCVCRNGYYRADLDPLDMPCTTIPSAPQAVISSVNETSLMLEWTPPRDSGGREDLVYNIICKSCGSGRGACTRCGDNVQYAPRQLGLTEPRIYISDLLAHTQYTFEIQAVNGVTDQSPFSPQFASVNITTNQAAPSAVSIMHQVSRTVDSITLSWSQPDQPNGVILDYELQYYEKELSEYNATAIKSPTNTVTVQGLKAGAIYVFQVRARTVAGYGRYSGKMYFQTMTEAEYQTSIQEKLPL
Experimental: as §1

[3] = molecular target: T3, human EphA3 extracellular region-SEAP-His protein (human, UniProt P29320 21-541)
T3 construct: extracellular domain; also called Eph receptor extracellular region-SEAP-His protein; not shown: secretory alkaline phosphatase (SEAP); histidine tag
T3 sequence (looked up): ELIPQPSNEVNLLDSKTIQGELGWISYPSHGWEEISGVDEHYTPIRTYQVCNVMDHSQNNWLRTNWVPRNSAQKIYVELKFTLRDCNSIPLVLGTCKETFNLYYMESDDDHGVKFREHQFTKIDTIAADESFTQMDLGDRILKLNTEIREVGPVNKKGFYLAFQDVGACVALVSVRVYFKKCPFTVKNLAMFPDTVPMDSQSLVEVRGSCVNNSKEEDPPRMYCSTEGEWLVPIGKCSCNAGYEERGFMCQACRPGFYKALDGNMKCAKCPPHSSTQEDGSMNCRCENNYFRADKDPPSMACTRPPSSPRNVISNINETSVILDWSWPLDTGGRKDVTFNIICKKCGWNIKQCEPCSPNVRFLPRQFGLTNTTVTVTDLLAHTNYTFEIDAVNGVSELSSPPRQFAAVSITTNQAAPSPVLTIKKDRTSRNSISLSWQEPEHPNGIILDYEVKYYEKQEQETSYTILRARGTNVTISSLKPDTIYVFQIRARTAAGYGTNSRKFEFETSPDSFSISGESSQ
Experimental: as §1

Measured: binding result

B1: mouse anti-EphA4 monoclonal antibody (antibody A) (antibody, mouse IgG1, kappa, V domains shown)
VH: QVQLKQSGPSLVQPSQSLSITCTVSGFSLTRYGVHWVRQSPGKGLEWLGVIWRGGSTDYNAAFMSRLSITKDNSKSQVFFKMNSLQADDTAIYYCAKESLFGVYYDYGYYSMDYWGQGTSVTVSS
VL: DIQMTQSPSSLSASLGERVSLTCRASQEISGYLSWLQQKPDGTIKRLIYAASTLDSGVPKRFSGSRSGSDYSLTISSLESEDFADYYCLQYASYPLTFGAGTKLELKR
notes: purified from hybridoma supernatant
no binding (tested: 10 µg/mL): all assays above
